Series [1] deals with T1, β-xylosidase BxTW1 (rBxTW1) (Talaromyces amestolkiae, UniProt A0A0H3W535).
T1 construct: mature BxTW1 without its signal peptide, expressed in Pichia pastoris GS115
T1 sequence (A0A0H3W535 22-797): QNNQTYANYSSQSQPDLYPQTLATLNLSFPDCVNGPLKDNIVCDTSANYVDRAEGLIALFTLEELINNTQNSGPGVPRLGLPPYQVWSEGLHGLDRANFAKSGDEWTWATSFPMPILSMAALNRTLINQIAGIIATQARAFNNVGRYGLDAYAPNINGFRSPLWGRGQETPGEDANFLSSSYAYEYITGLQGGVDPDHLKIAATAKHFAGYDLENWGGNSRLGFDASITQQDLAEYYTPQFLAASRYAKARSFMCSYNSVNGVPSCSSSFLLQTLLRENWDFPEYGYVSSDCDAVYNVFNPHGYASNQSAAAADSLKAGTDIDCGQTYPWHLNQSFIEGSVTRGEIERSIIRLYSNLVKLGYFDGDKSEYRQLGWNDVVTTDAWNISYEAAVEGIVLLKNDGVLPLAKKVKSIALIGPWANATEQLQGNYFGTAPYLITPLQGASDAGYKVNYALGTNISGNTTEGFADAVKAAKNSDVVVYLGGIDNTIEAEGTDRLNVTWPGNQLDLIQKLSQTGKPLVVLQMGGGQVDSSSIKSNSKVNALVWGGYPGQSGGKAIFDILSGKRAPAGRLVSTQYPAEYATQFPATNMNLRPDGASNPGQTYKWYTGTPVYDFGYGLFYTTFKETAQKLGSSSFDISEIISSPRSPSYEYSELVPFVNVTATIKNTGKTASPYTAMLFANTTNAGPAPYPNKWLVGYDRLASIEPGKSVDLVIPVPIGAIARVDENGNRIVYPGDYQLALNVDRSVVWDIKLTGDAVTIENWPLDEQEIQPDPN
Kind of series: competitive product inhibition of pNPX hydrolysis by purified enzyme. Format: biochemical.

Series [2] addresses recombinant β-xylosidase BxTW1 from Talaromyces amestolkiae (Talaromyces amestolkiae). Kind of series: SEC; Superose 12 HR 10/30 column, molecular mass in native conditions, performed as described previously [20]. (In general: In gel filtration, larger molecules generally elute earlier.)
Substrate in series [3]: O=[N+]([O-])c1ccc(O[C@@H]2O[C@@H](CO)[C@H](O)[C@H]2O)cc1
The experiment in a line: Michaelis-Menten kinetics of purified enzyme (Km). Format: biochemical, Talaromyces amestolkiae.

Substrate in series [4]: OC1OC[C@@H](O[C@@H]2OC[C@@H](O[C@@H]3OC[C@@H](O[C@@H]4OC[C@@H](O)[C@H](O)[C@H]4O)[C@H](O)[C@H]3O)[C@H](O)[C@H]2O)[C@H](O)[C@H]1O
Kind of series: Michaelis-Menten kinetics of purified enzyme (Km). Format: biochemical, Talaromyces amestolkiae.

Substrate in series [5]: OC1OC[C@@H](O[C@@H]2OC[C@@H](O[C@@H]3OC[C@@H](O[C@@H]4OC[C@@H](O[C@@H]5OC[C@@H](O)[C@H](O)[C@H]5O)[C@H](O)[C@H]4O)[C@H](O)[C@H]3O)[C@H](O)[C@H]2O)[C@H](O)[C@H]1O
The experiment in a line: Michaelis-Menten kinetics of purified enzyme (Km). Format: biochemical, Talaromyces amestolkiae.

Substrate in series [6]: OC1OC[C@@H](O[C@@H]2OC[C@@H](O)[C@H](O)[C@H]2O)[C@H](O)[C@H]1O
Kind of series: Michaelis-Menten kinetics of purified enzyme (Km). Format: biochemical, Talaromyces amestolkiae.

Substrate in series [7]: OC1OC[C@@H](O[C@@H]2OC[C@@H](O[C@@H]3OC[C@@H](O)[C@H](O)[C@H]3O)[C@H](O)[C@H]2O)[C@H](O)[C@H]1O
Kind of series: Michaelis-Menten kinetics of purified enzyme (Km). Format: biochemical, Talaromyces amestolkiae.

Substrate in series [8]: O=[N+]([O-])c1ccc(O[C@@H]2OC[C@@H](O)[C@H](O)[C@H]2O)cc1
The experiment in a line: Michaelis-Menten kinetics of purified enzyme (Km). In kind it is biochemical, Talaromyces amestolkiae.

Substrate in series [9]: OC1OC[C@@H](O[C@@H]2OC[C@@H](O[C@@H]3OC[C@@H](O[C@@H]4OC[C@@H](O[C@@H]5OC[C@@H](O[C@@H]6OC[C@@H](O)[C@H](O)[C@H]6O)[C@H](O)[C@H]5O)[C@H](O)[C@H]4O)[C@H](O)[C@H]3O)[C@H](O)[C@H]2O)[C@H](O)[C@H]1O
Kind of series: Michaelis-Menten kinetics of purified enzyme (Km). Format: biochemical, Talaromyces amestolkiae.

Substrate in series [10]: O=[N+]([O-])c1ccc(O[C@@H]2OC[C@H](O)[C@H](O)[C@H]2O)cc1
The experiment in a line: Michaelis-Menten kinetics of purified enzyme (Km). In kind it is biochemical, Talaromyces amestolkiae.

For `OC1OC[C@@H](O)[C@H](O)[C@H]1O` (stereo partly shown) [xylose], the Ki (as a rule, the dissociation constant of the complex between target and ligand, obtained from inhibition or displacement) in [1] worked out at 1.7 ± 0.3 mM.

For “recombinant β-xylosidase BxTW1 from Talaromyces amestolkiae (enzyme)”, the stoichiometry N (in general, a count of units in the complex or per binding partner) in series [2] amounted to 2.

B1: β-xylosidase BxTW1 (rBxTW1) (Talaromyces amestolkiae) (protein)
chain: QNNQTYANYSSQSQPDLYPQTLATLNLSFPDCVNGPLKDNIVCDTSANYVDRAEGLIALFTLEELINNTQNSGPGVPRLGLPPYQVWSEGLHGLDRANFAKSGDEWTWATSFPMPILSMAALNRTLINQIAGIIATQARAFNNVGRYGLDAYAPNINGFRSPLWGRGQETPGEDANFLSSSYAYEYITGLQGGVDPDHLKIAATAKHFAGYDLENWGGNSRLGFDASITQQDLAEYYTPQFLAASRYAKARSFMCSYNSVNGVPSCSSSFLLQTLLRENWDFPEYGYVSSDCDAVYNVFNPHGYASNQSAAAADSLKAGTDIDCGQTYPWHLNQSFIEGSVTRGEIERSIIRLYSNLVKLGYFDGDKSEYRQLGWNDVVTTDAWNISYEAAVEGIVLLKNDGVLPLAKKVKSIALIGPWANATEQLQGNYFGTAPYLITPLQGASDAGYKVNYALGTNISGNTTEGFADAVKAAKNSDVVVYLGGIDNTIEAEGTDRLNVTWPGNQLDLIQKLSQTGKPLVVLQMGGGQVDSSSIKSNSKVNALVWGGYPGQSGGKAIFDILSGKRAPAGRLVSTQYPAEYATQFPATNMNLRPDGASNPGQTYKWYTGTPVYDFGYGLFYTTFKETAQKLGSSSFDISEIISSPRSPSYEYSELVPFVNVTATIKNTGKTASPYTAMLFANTTNAGPAPYPNKWLVGYDRLASIEPGKSVDLVIPVPIGAIARVDENGNRIVYPGDYQLALNVDRSVVWDIKLTGDAVTIENWPLDEQEIQPDPN
notes: mature BxTW1 without its signal peptide, expressed in Pichia pastoris GS115
As for B1, the Km (commonly the substrate concentration at which the rate is half of its maximum) is 4300 ± 300 µM in [3]; 200 ± 10 µM in [4]; 220 ± 10 µM in series [5]; 510 ± 30 µM in series [6]; 190 ± 10 µM in series [7]; 200 ± 10 µM in series [8]. The Michaelis-Menten constant (Km) in [9] was 210 ± 20 µM; in series [10], 1600 ± 100 µM. In addition, the maximum rate (Vmax) (commonly the rate approached at saturating substrate) came out at 14.9 µmol/min/mg in series [3]; 6.34 µmol/min/mg in [4]; 4.48 µmol/min/mg in series [5]; 26.4 µmol/min/mg in series [6]; 9 µmol/min/mg in [7]; 20.8 µmol/min/mg in series [8]. The Vmax in series [9] was determined as 4.27 µmol/min/mg; in [10] it was 8.3 µmol/min/mg. Besides, the kcat (commonly the number of substrate molecules converted per active site and unit of time at saturation) in series [3] came to 49.8 s⁻¹; in series [4], 21.1 s⁻¹; in series [5], 14.9 s⁻¹; in series [6], 87.9 s⁻¹; in series [7], 30 s⁻¹; in series [8], 69.3 s⁻¹. The turnover number (kcat) is 14.2 s⁻¹ in series [9] and 28 s⁻¹ in [10]. In addition, the kcat/Km (commonly the turnover number divided by the Michaelis constant) in [3] came out at 12000 M⁻¹ s⁻¹; in [4], 100000 M⁻¹ s⁻¹; in [5], 68000 M⁻¹ s⁻¹; in [6], 170000 M⁻¹ s⁻¹; in [7], 160000 M⁻¹ s⁻¹; in [8], 336000 M⁻¹ s⁻¹. Further, the kcat/Km in [9] was 69000 M⁻¹ s⁻¹; in series [10] it was 17000 M⁻¹ s⁻¹.

These data come from paper PMC5050587, “Enzymatic fine-tuning for 2-(6-hydroxynaphthyl) β-D-xylopyranoside synthesis catalyzed by the recombinant β-xylosidase BxTW1 from Talaromyces amestolkiae” (Microbial Cell Factories, 2016).
